# From patent US6534281
# Assays:
# human C-peptide (human) [1] = test: ELISA on immobilized C-peptide; labeled antibody 0.1 ug/ml, free C-peptide 0 ug/ml
# human C-peptide (human) [2] = test: sandwich immunoassay, one-step; CPT-3F-11 on particles, labeled antibody PEP-001
# human C-peptide (human) [3] = test: ELISA on immobilized C-peptide; labeled antibody 10 ug/ml, free C-peptide 10 ug/ml
# human C-peptide (human) [4] = test: ELISA on immobilized C-peptide; labeled antibody 0.1 ug/ml, free C-peptide 0.1 ug/ml
# human C-peptide (human) [5] = test: ELISA on immobilized C-peptide; labeled antibody 10 ug/ml, free C-peptide 1.0 ug/ml
# human proinsulin (human) [6] = target: human proinsulin (human) (UniProt P01308); test: sandwich immunoassay, one-step; proinsulin 50 ng/ml; CPT-3F-11 on particles, labeled antibody 9101
# Chain of UniProt P01308 (P01308 25-110): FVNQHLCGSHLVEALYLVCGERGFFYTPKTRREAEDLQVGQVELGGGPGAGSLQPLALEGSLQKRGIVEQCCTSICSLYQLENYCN
# human proinsulin (human) [7] = target: human proinsulin (human) (UniProt P01308); test: sandwich immunoassay, one-step, against C-peptide calibration; proinsulin 50 ng/ml; CPT-3-F11 on particles, labeled antibody PEP-001
# human proinsulin (human) [8] = target: human proinsulin (human) (UniProt P01308); test: sandwich immunoassay, two-step, against C-peptide calibration; proinsulin 200 ng/ml; CPT-3-F11 on particles, labeled antibody 9101
# human C-peptide (human) [9] = test: ELISA on immobilized C-peptide; labeled antibody 1.0 ug/ml, free C-peptide 0 ug/ml (reference)
# human C-peptide (human) [10] = test: ELISA on immobilized C-peptide; labeled antibody 1.0 ug/ml, free C-peptide 0 ug/ml
# human proinsulin (human) [11] = target: human proinsulin (human) (UniProt P01308); test: sandwich immunoassay, two-step, against C-peptide calibration; proinsulin 400 ng/ml; CPT-3-F11 on particles, labeled antibody 9101
# human proinsulin (human) [12] = target: human proinsulin (human) (UniProt P01308); test: sandwich immunoassay, one-step, against C-peptide calibration; proinsulin 400 ng/ml; CPT-3-F11 on particles, labeled antibody PEP-001
# human proinsulin (human) [13] = target: human proinsulin (human) (UniProt P01308); test: sandwich immunoassay, two-step; proinsulin 400 ng/ml; CPT-3F-11 on particles, labeled antibody 9101
# human C-peptide (human) [14] = test: sandwich immunoassay, two-step; CPT-3F-11 on particles, labeled antibody PEP-001
# human C-peptide (human) [15] = test: ELISA on immobilized C-peptide; labeled antibody 0.1 ug/ml, free C-peptide 0 ug/ml (reference)
# human C-peptide (human) [16] = test: ELISA on immobilized C-peptide; labeled antibody 0.1 ug/ml, free C-peptide 10 ug/ml
# human proinsulin (human) [17] = target: human proinsulin (human) (UniProt P01308); test: sandwich immunoassay, two-step, against C-peptide calibration; proinsulin 400 ng/ml; CPT-3-F11 on particles, labeled antibody PEP-001
# human proinsulin (human) [18] = target: human proinsulin (human) (UniProt P01308); test: sandwich immunoassay, one-step; proinsulin 200 ng/ml; CPT-3F-11 on particles, labeled antibody 9101
# human C-peptide (human) [19] = test: ELISA on immobilized C-peptide; labeled antibody 0.1 ug/ml, free C-peptide 1.0 ug/ml
# human proinsulin (human) [20] = target: human proinsulin (human) (UniProt P01308); test: sandwich immunoassay, two-step; proinsulin 50 ng/ml; CPT-3F-11 on particles, labeled antibody 9101
# [21] = target: modified C-peptide (human C-peptide having Arg-Arg bound to its N-terminal and Lys-Arg bound to its C-terminal) (human); test: sandwich immunoassay, two-step, against C-peptide calibration; modified C-peptide 5 ng/ml; CPT-3F-11 on particles, labeled antibody 9101
# Chain of modified C-peptide (human C-peptide having Arg-Arg bound to its N-terminal and Lys-Arg bound to its C-terminal) (human) (peptide, as listed by the source): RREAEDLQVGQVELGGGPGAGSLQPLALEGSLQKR
# human proinsulin (human) [22] = target: human proinsulin (human) (UniProt P01308); test: sandwich immunoassay, one-step, against C-peptide calibration; proinsulin 400 ng/ml; CPT-3-F11 on particles, labeled antibody 9101
# human C-peptide (human) [23] = test: ELISA on immobilized C-peptide; labeled antibody 0.0 ug/ml (blank), free C-peptide 10 ug/ml
# [24] = target: modified C-peptide (human C-peptide having Arg-Arg bound to its N-terminal and Lys-Arg bound to its C-terminal) (human); test: sandwich immunoassay, one-step, against C-peptide calibration; modified C-peptide 5 ng/ml; CPT-3F-11 on particles, labeled antibody 9101
# human C-peptide (human) [25] = test: sandwich immunoassay, two-step; CPT-3F-11 on particles, labeled antibody 9101
# human C-peptide (human) [26] = test: ELISA on immobilized C-peptide; labeled antibody 10 ug/ml, free C-peptide 0.1 ug/ml
# human proinsulin (human) [27] = target: human proinsulin (human) (UniProt P01308); test: sandwich immunoassay, two-step, against C-peptide calibration; proinsulin 50 ng/ml; CPT-3-F11 on particles, labeled antibody PEP-001
# human C-peptide (human) [28] = test: ELISA on immobilized C-peptide; labeled antibody 1.0 ug/ml, free C-peptide 0.1 ug/ml
# human proinsulin (human) [29] = target: human proinsulin (human) (UniProt P01308); test: sandwich immunoassay, two-step, against C-peptide calibration; proinsulin 200 ng/ml; CPT-3-F11 on particles, labeled antibody PEP-001
# human proinsulin (human) [30] = target: human proinsulin (human) (UniProt P01308); test: sandwich immunoassay, two-step, against C-peptide calibration; proinsulin 50 ng/ml; CPT-3-F11 on particles, labeled antibody 9101
# human C-peptide (human) [31] = test: ELISA on immobilized C-peptide; labeled antibody 0.0 ug/ml (blank), free C-peptide 0.1 ug/ml
# human C-peptide (human) [32] = test: sandwich immunoassay, one-step; CPT-3F-11 on particles, labeled antibody 9101
# human C-peptide (human) [33] = test: ELISA on immobilized C-peptide; labeled antibody 0.0 ug/ml (blank), free C-peptide 1.0 ug/ml
# Chain of human C-peptide (human) (peptide, as listed by the source): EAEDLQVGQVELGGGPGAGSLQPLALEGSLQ
substance,measurement,setting,value
anti-human C-peptide monoclonal antibody CPT-3-F11 (Dako),Absorbance (absorbance at 405 nm),human C-peptide (human) [1],1.52
same,2S/N value,human C-peptide (human) [2],0.012 ng/mL
same,Absorbance (absorbance at 405 nm),human C-peptide (human) [3],0.008
same,Binding Ratio,human C-peptide (human) [3],0.1%
same,Absorbance (absorbance at 405 nm),human C-peptide (human) [4],0.179
same,Binding Ratio,human C-peptide (human) [4],11.8%
same,Absorbance (absorbance at 405 nm),human C-peptide (human) [5],0.059
same,Binding Ratio,human C-peptide (human) [5],2.7%
same,counts of chemiluminescence,human proinsulin (human) [6],4140 counts
same,Cross-reactivity (%) to Human Proinsulin,human proinsulin (human) [7],56.8%
same,Cross-reactivity (%) to Human Proinsulin,human proinsulin (human) [8],1.2%
same,Binding Ratio,human C-peptide (human) [9],100%
same,Absorbance (absorbance at 405 nm),human C-peptide (human) [10],1.94
same,Cross-reactivity (%) to Human Proinsulin,human proinsulin (human) [11],1.4%
same,Cross-reactivity (%) to Human Proinsulin,human proinsulin (human) [12],> 15%
same,counts of chemiluminescence,human proinsulin (human) [13],99400 counts
same,2S/N value,human C-peptide (human) [14],0.006 ng/mL
same,Binding Ratio,human C-peptide (human) [15],100%
same,Absorbance (absorbance at 405 nm),human C-peptide (human) [16],0
same,Binding Ratio,human C-peptide (human) [16],0%
same,Cross-reactivity (%) to Human Proinsulin,human proinsulin (human) [17],> 15%
same,counts of chemiluminescence,human proinsulin (human) [18],51300 counts
same,Absorbance (absorbance at 405 nm),human C-peptide (human) [19],0.026
same,Binding Ratio,human C-peptide (human) [19],1.7%
same,counts of chemiluminescence,human proinsulin (human) [20],4400 counts
same,Cross-reactivity (%) to Modified C-peptide,[21],0.5%
same,Cross-reactivity (%) to Human Proinsulin,human proinsulin (human) [22],3%
same,Absorbance (absorbance at 405 nm),human C-peptide (human) [23],0
same,Binding Ratio,human C-peptide (human) [23],0%
same,Cross-reactivity (%) to Modified C-peptide,[24],0.5%
same,2S/N value,human C-peptide (human) [25],0.005 ng/mL
same,Absorbance (absorbance at 405 nm),human C-peptide (human) [26],0.336
same,Binding Ratio,human C-peptide (human) [26],15.5%
same,Cross-reactivity (%) to Human Proinsulin,human proinsulin (human) [27],41.1%
same,Absorbance (absorbance at 405 nm),human C-peptide (human) [28],0.311
same,Binding Ratio,human C-peptide (human) [28],16%
same,Cross-reactivity (%) to Human Proinsulin,human proinsulin (human) [29],> 30%
same,Cross-reactivity (%) to Human Proinsulin,human proinsulin (human) [30],0.4%
same,Absorbance (absorbance at 405 nm),human C-peptide (human) [31],0
same,Binding Ratio,human C-peptide (human) [31],0%
same,2S/N value,human C-peptide (human) [32],0.008 ng/mL
same,Absorbance (absorbance at 405 nm),human C-peptide (human) [33],0
same,Binding Ratio,human C-peptide (human) [33],0%
